# In patent US20060194739 (published 2006):
# Non-standard residues stand in square brackets, D forms with d. No end group written: not given here. *: point of attachment. Trp(5-CN) = N#Cc1ccc2[nH]cc(C[C@H](N)C(=O)O)c2c1; Ac6c = NC1(C(=O)O)CCCCC1; Hexanoyl = CCCCCC(=O)*; Propionyl = CCC(=O)*; Ahx = NCCCCCC(=O)O
# B1: IV-35-B (peptide)
# chain: Hexanoyl-RAYRWR-NH2
# SMILES: CCCCCC(=O)N[C@@H](CCCNC(=N)N)C(=O)N[C@@H](C)C(=O)N[C@@H](Cc1ccc(O)cc1)C(=O)N[C@@H](CCCNC(=N)N)C(=O)N[C@@H](Cc1c[nH]c2ccccc12)C(=O)N[C@@H](CCCNC(=N)N)C(N)=O
# B2: IV-23-B (peptide)
# chain: Propionyl-RAYRWR-NH2
# SMILES: CCC(=O)N[C@@H](CCCNC(=N)N)C(=O)N[C@@H](C)C(=O)N[C@@H](Cc1ccc(O)cc1)C(=O)N[C@@H](CCCNC(=N)N)C(=O)N[C@@H](Cc1c[nH]c2ccccc12)C(=O)N[C@@H](CCCNC(=N)N)C(N)=O
# B3: IV-41-B (peptide)
# chain: Hexanoyl-RYYRAR-NH2
# SMILES: CCCCCC(=O)N[C@@H](CCCNC(=N)N)C(=O)N[C@@H](Cc1ccc(O)cc1)C(=O)N[C@@H](Cc1ccc(O)cc1)C(=O)N[C@@H](CCCNC(=N)N)C(=O)N[C@@H](C)C(=O)N[C@@H](CCCNC(=N)N)C(N)=O
# B4: IV-21-C (peptide)
# chain: Propionyl-AYYRWR-NH2
# SMILES: CCC(=O)N[C@@H](C)C(=O)N[C@@H](Cc1ccc(O)cc1)C(=O)N[C@@H](Cc1ccc(O)cc1)C(=O)N[C@@H](CCCNC(=N)N)C(=O)N[C@@H](Cc1c[nH]c2ccccc12)C(=O)N[C@@H](CCCNC(=N)N)C(N)=O
# B5: IV-33-B (peptide)
# chain: Hexanoyl-AYYRWR-NH2
# SMILES: CCCCCC(=O)N[C@@H](C)C(=O)N[C@@H](Cc1ccc(O)cc1)C(=O)N[C@@H](Cc1ccc(O)cc1)C(=O)N[C@@H](CCCNC(=N)N)C(=O)N[C@@H](Cc1c[nH]c2ccccc12)C(=O)N[C@@H](CCCNC(=N)N)C(N)=O
# B6: IV-29-B (peptide)
# chain: Propionyl-RYYRAR-NH2
# SMILES: CCC(=O)N[C@@H](CCCNC(=N)N)C(=O)N[C@@H](Cc1ccc(O)cc1)C(=O)N[C@@H](Cc1ccc(O)cc1)C(=O)N[C@@H](CCCNC(=N)N)C(=O)N[C@@H](C)C(=O)N[C@@H](CCCNC(=N)N)C(N)=O
# B7: IV-27-B (peptide)
# chain: Propionyl-RYYAWR-NH2
# SMILES: CCC(=O)N[C@@H](CCCNC(=N)N)C(=O)N[C@@H](Cc1ccc(O)cc1)C(=O)N[C@@H](Cc1ccc(O)cc1)C(=O)N[C@@H](C)C(=O)N[C@@H](Cc1c[nH]c2ccccc12)C(=O)N[C@@H](CCCNC(=N)N)C(N)=O
# B8: IV-39-B (peptide)
# chain: Hexanoyl-RYYAWR-NH2
# SMILES: CCCCCC(=O)N[C@@H](CCCNC(=N)N)C(=O)N[C@@H](Cc1ccc(O)cc1)C(=O)N[C@@H](Cc1ccc(O)cc1)C(=O)N[C@@H](C)C(=O)N[C@@H](Cc1c[nH]c2ccccc12)C(=O)N[C@@H](CCCNC(=N)N)C(N)=O
# B9: VII-55-A (peptide)
# chain: Ac-RYY[Ahx]WR-NH2
# SMILES: CC(=O)N[C@@H](CCCNC(=N)N)C(=O)N[C@@H](Cc1ccc(O)cc1)C(=O)N[C@@H](Cc1ccc(O)cc1)C(=O)NCCCCCC(=O)N[C@@H](Cc1c[nH]c2ccccc12)C(=O)N[C@@H](CCCNC(=N)N)C(N)=O
# B10: VII-4-B (peptide)
# chain: [Ac6c]RYYRWR-NH2
# modifications: N-terminus assumed
# SMILES: N=C(N)NCCC[C@H](NC(=O)[C@H](Cc1c[nH]c2ccccc12)NC(=O)[C@H](CCCNC(=N)N)NC(=O)[C@H](Cc1ccc(O)cc1)NC(=O)[C@H](Cc1ccc(O)cc1)NC(=O)[C@H](CCCNC(=N)N)NC(=O)C1(N)CCCCC1)C(N)=O
# B11: VII-57-C (peptide)
# chain: Ac-RYYRW[Ahx]-NH2
# SMILES: CC(=O)N[C@@H](CCCNC(=N)N)C(=O)N[C@@H](Cc1ccc(O)cc1)C(=O)N[C@@H](Cc1ccc(O)cc1)C(=O)N[C@@H](CCCNC(=N)N)C(=O)N[C@@H](Cc1c[nH]c2ccccc12)C(=O)NCCCCCC(N)=O
# B12: VII-51-A (peptide)
# chain: Ac-RYYR[Trp(5-CN)]R-NH2
# SMILES: CC(=O)N[C@@H](CCCNC(=N)N)C(=O)N[C@@H](Cc1ccc(O)cc1)C(=O)N[C@@H](Cc1ccc(O)cc1)C(=O)N[C@@H](CCCNC(=N)N)C(=O)N[C@@H](Cc1c[nH]c2ccc(C#N)cc12)C(=O)N[C@@H](CCCNC(=N)N)C(N)=O
# B13: IV-12-B (peptide)
# chain: Ac-R[dY]Y[dR]WR-NH2
# SMILES: CC(=O)N[C@@H](CCCNC(=N)N)C(=O)N[C@H](Cc1ccc(O)cc1)C(=O)N[C@@H](Cc1ccc(O)cc1)C(=O)N[C@H](CCCNC(=N)N)C(=O)N[C@@H](Cc1c[nH]c2ccccc12)C(=O)N[C@@H](CCCNC(=N)N)C(N)=O
# Molecular target: ORL1 (UniProt P41146)
# Sequence (P41146 whole entry): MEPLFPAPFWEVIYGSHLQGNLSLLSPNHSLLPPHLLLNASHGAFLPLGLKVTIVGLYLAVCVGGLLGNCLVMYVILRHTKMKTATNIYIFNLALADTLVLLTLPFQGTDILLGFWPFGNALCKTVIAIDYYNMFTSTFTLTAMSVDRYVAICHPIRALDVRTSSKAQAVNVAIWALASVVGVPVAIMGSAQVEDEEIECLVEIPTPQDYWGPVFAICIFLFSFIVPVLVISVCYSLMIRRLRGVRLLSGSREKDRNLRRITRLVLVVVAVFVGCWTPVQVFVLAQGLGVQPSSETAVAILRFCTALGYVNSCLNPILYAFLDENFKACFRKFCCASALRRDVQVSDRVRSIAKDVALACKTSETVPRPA
# Test: competition
row,Binder,IC50
1,B1,113 nM
2,B2,182 nM
3,B3,710 nM
4,B4,1780 nM
5,B5,1020 nM
6,B6,1890 nM
7,B7,400 nM
8,B8,1000 nM

# Molecular target: ORL1 (UniProt P41146)
# Test: competition
# Remark: another data set of the same source
row,Binder,Ki
1,B9,39 nM
2,B10,9.25 nM
3,B11,41.9 nM
4,B12,0.3 nM

# Molecular target: ORL1 (UniProt P41146)
# Test: competition, [3H]nociceptin
row,Binder,IC50
1,B13,1140 nM
